From the supplement of paper PMC10201428
± gives the standard deviation of the averaged measurements.

Assays:
[1] = test system: VchCAST RNA-guided transposition machinery (E. coli BL21(DE3) host, lacZ target); test: relative integration efficiency (T-LR orientation) vs wild-type transposon end (log2 (normalized fold change)); transposon end mutated: right end (5 bp flank + 75 bp right end); higher = more efficient transposition
How it was run: (§1)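 In E. coli BL21(DE3), a T7-driven effector plasmid was paired with a pUC57 mini-transposon donor containing 1549 left-end or 1849 right-end barcoded transposon variants. Cells grew on plates with 0.1 mM IPTG at 37°C for 18 h. Relative integration efficiency was derived from Illumina reads of genomic integration junctions against input plasmids, as a log-transformed output/input barcode fold change normalised to reference barcodes.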

[2] = test system: VchCAST RNA-guided transposition machinery (E. coli BL21(DE3) host, lacZ target); test: relative integration efficiency (T-RL orientation) vs wild-type transposon end (log2 (normalized fold change)); transposon end mutated: right end (5 bp flank + 75 bp right end); higher = more efficient transposition
How it was run: as §1

Sequence | relative integration efficiency (log2) [1] | relative integration efficiency (log2) [2]
ACATTTGTTGATACAACCATACAATGATAATTACACCCATACATTGATAATTATCACACCCATACATTGATATTGCCTCTGATCATAGTCAGACCAACATTGCTACGACCCGTATTCGCACCGACAC | -1.3 ± 0.016 | -2.95 ± 0.34
ACATTTGTTGATACAACCATACCATGATAATTACACCCATAAATTGATAATTATCACACCCATAAATTGATATTGCCTCTGATCATAGTCAGACCAACATTGCTACGACCCGTATTCGCACCGACAC | -1.98 ± 0.24 | -1.34 ± 0.079
ACATTTGTTGATACAACCATACCATGATAATTACACCCATACCTTGATAATTATCACACCCATACCTTGATATTGCCTCTGATCATAGTCAGACCAACATTGCTACGACCCGTATTCGCACCGACAC | -1.75 ± 0.22 | -3.2 ± 0.16
ACATTTGTTGATACAACCATACCCGGATAATTACACCCATAAATTGATAATTATCACACCCATAAATTGATATTGCCTCTGATCATAGTCAGACCAACATTGCTACGACCCGTATTCGCACCGACAC | -4.39 ± 0.99 | -3.77 ± 0.26
ACATTTGTTGATACAACCATACCCGTCGCCGGCACAAACGCCCGGTCGCCGGCGACACAAACGCCCGGTCGCGGTAAGAGGATCATAGTCAGACCAACATTGCTACGACCCGTATTCGCACCGACAC | -4.78 ± 0.59 | -6.48 ± 0.07
ACATTTGTTGATACAACCATACCCTGATAATTACACCCATACCGTGATAATTATCACACCCATACCGTGATATTGCCTCTGATCATAGTCAGACCAACATTGCTACGACCCGTATTCGCACCGACAC | -2.37 ± 1 | -4.24 ± 0.2
ACATTTGTTGATACAACCATATAATGATAATAACACCAATAAAATGATAATTATCACACCCAATTTAACTATAACGCTCTGATCATAGTCAGACCAACATTGCTACGACCCGTATTCGCACCGACAC | 1.887 ± 0.0053 | -1.09 ± 0.33
ACATTTGTTGATACAACCATATAATGATAATAACACCCATAAAATGATAATTATCACACCCAATTTAACTATAACGCTCTGATCATAGTCAGACCAACATTGCTACGACCCGTATTCGCACCGACAC | 2.16 ± 0.14 | -1.15 ± 0.33
ACATTTGTTGATACAACCATATAATGATAATAACACCCCTAAAATGATAATTATCACACCCAATTTAACTATAACGCTCTGATCATAGTCAGACCAACATTGCTACGACCCGTATTCGCACCGACAC | 0.598 ± 0.1 | -2.99 ± 0.37
ACATTTGTTGATACAACCATATAATGATAATAACACCGATAAAATGATAATTATCACACCCAATTTAACTATAACGCTCTGATCATAGTCAGACCAACATTGCTACGACCCGTATTCGCACCGACAC | 1.74 ± 0.093 | -1.46 ± 0.28
ACATTTGTTGATACAACCATATAATGATAATTACACCCATATATTGATAATTATCACACCCATATATTGATATTGCCTCTGATCATAGTCAGACCAACATTGCTACGACCCGTATTCGCACCGACAC | 0.24 ± 0.36 | 0.0833 ± 0.11
ACATTTGTTGATACAACCATATATTGATATCTCCAACCATAAAATGATAATTATCACAACCATAAAATGATAATTACTCTGATCATAGTCAGACCAACATTGCTACGACCCGTATTCGCACCGACAC | -0.314 ± 0.062 | -0.172 ± 0.01
ACATTTGTTGATACAACCATATATTGATATCTCCAACCATAAAATGATAATTATCACAACCATAAAGTGATATTTACTCTGATCATAGTCAGACCAACATTGCTACGACCCGTATTCGCACCGACAC | -0.441 ± 0.36 | -0.115 ± 0.074
ACATTTGTTGATACAACCATATATTGATATCTCCAACCATAAAATGATAATTATCACAACCATAAGTTGATATTTTCTCTGATCATAGTCAGACCAACATTGCTACGACCCGTATTCGCACCGACAC | -0.357 ± 0.16 | -0.491 ± 0.098
ACATTTGTTGATACAACCATATATTGATATCTCCAACCATAAAATGATAATTATCACAACCATATATTGATATCTCCTCTGATCATAGTCAGACCAACATTGCTACGACCCGTATTCGCACCGACAC | -0.283 ± 0.24 | -0.5854 ± 0.0047
ACATTTGTTGATACAACCATATATTGATATCTCCAACCATAAAATGATAATTATCACACCCATAAATTGATAATTACTCTGATCATAGTCAGACCAACATTGCTACGACCCGTATTCGCACCGACAC | -0.0737 ± 0.099 | -0.0947 ± 0.0052
